Results as given in patent US5286714.

biological target: thrombin; test: Ki(app.) from kinetics of thrombin inhibition with chromogenic substrate D-HHT-Gly-Arg-pNA (Stone and Hofsteenge), 25° C.

| Molecule | Ki |
| --- | --- |
| [Leu^1,Thr^2] desulfatohirudin | 0.14 nM |
| [Ala^1,Thr^2] desulfatohirudin | 0.2 nM |
| [Ile^1,Thr^2] desulfatohirudin | 0.61 nM |
| [Ala^1,Thr^2,Glu^33,Glu^53] desulfatohirudin (protein) ATYTDCTESGQNLCLCEGSNVCGQGNKCILGSDGEKNQCVTGEGTPKPQSHNEGDFEEIPEEYLQ | 0.37 nM |
| [Ala^1,Thr^2,Glu^33] desulfatohirudin (protein) ATYTDCTESGQNLCLCEGSNVCGQGNKCILGSEGEKNQCVTGEGTPKPQSHNDGDFEEIPEEYLQ | 0.16 nM |
| [Ala^1,Thr^2,Glu^33,Ala^54] desulfatohirudin (protein) ATYTDCTESGQNLCLCEGSNVCGQGNKCILGSEGEKNQCVTGEGTPKPQSHNDADFEEIPEEYLQ | 0.35 nM |
| [Ala^1,Thr^2,Gln^52,Glu^53,Glu^55] desulfatohirudin (protein) ATYTDCTESGQNLCLCEGSNVCGQGNKCILGSDGEKNQCVTGEGTPKPQSHQEGEFEEIPEEYLQ | 0.19 nM |

The remaining molecules from weak to strong by Ki, led by results:

| Ki | Molecule |
| --- | --- |
| 0.38 nM | [Ala^1,Thr^2,Glu^53] desulfatohirudin (protein) ATYTDCTESGQNLCLCEGSNVCGQGNKCILGSDGEKNQCVTGEGTPKPQSHNEGDFEEIPEEYLQ |
| 0.31 nM | [Ala^1,Thr^2,Glu^33,Gln^52,Glu^53,Ala^54]-desulfatohirudin (protein) ATYTDCTESGQNLCLCEGSNVCGQGNKCILGSEGEKNQCVTGEGTPKPQSHQEADFEEIPEEYLQ |
| 0.3 nM | [Ala^1,Thr^2,Glu^33,Gln^52,Glu^53,Glu^55]-desulfatohirudin (protein) ATYTDCTESGQNLCLCEGSNVCGQGNKCILGSEGEKNQCVTGEGTPKPQSHQEGEFEEIPEEYLQ |
| 0.27 nM | [Ala^1,Thr^2,Ala^54] desulfatohirudin (protein) ATYTDCTESGQNLCLCEGSNVCGQGNKCILGSDGEKNQCVTGEGTPKPQSHNDADFEEIPEEYLQ |
| 0.22 nM | [Ala^1,Thr^2,Gln^52,Glu^53,Ala^54] desulfatohirudin (protein) ATYTDCTESGQNLCLCEGSNVCGQGNKCILGSDGEKNQCVTGEGTPKPQSHQEADFEEIPEEYLQ |
